Reference: patent US20190338011A1

Columns and labels:
[1] = biological target: human MIC-A (expressed on P815 mastocytoma cells) (human) (UniProt Q29983); experiment: cell-based or functional assay
[2] = biological target: human NKG2D ligand on human tumor cell lines (Jurkat, RPMI8866, K562, Daubi, U937, ECC-1); experiment: cell-based or functional assay

UniProt Q29983, sequence (Q29983 24-383): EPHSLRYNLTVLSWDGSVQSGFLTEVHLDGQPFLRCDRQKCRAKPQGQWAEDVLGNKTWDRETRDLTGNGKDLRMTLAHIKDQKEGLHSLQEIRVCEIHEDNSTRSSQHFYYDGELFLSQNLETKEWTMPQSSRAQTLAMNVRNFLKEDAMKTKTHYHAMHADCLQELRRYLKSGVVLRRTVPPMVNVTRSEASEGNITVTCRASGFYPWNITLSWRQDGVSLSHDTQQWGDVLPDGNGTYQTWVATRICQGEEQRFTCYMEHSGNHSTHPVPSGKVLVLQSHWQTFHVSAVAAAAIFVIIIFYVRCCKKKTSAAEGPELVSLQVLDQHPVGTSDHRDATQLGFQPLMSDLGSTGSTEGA

- Specific Lysis (%) of P815/MIC-A, Effector:Target Ratio 1 [1]: 5.4%
- Specific Lysis (%) of P815/MIC-A, Effector:Target Ratio 5 [1]: 17.3%
- Specific Lysis (%) of P815/MIC-A, Effector:Target Ratio 25 [1]: 35.4%
- Specific Lysis (%) of K562, Effector:Target Ratio 1, with control antibody [2]: 3.1%
- Specific Lysis (%) of K562, Effector:Target Ratio 5, with control antibody [2]: 17.6%
- Specific Lysis (%) of K562, Effector:Target Ratio 25, with control antibody [2]: 53.8%
- Specific Lysis (%) of RPMI8866, Effector:Target Ratio 1, with control antibody [2]: 9.3%
- Specific Lysis (%) of RPMI8866, Effector:Target Ratio 5, with control antibody [2]: 27.4%
- Specific Lysis (%) of RPMI8866, Effector:Target Ratio 25, with control antibody [2]: 41.6%
Substance: human chimeric NKG2D (human CD3ζ attached to the N-terminus of human NKG2D) (receptor)
